# Entries after “also recorded” stand apart in the source; their conditions may differ.
# Columns and labels:
# [1] = system: α2(I) collagen mRNA; assay: Real-time PCR for α2(I) collagen mRNA relative to 18S rRNA; format: cell-based, human
# [2] = system: mink lung epithelial cells; assay: Mink lung epithelial cell proliferation assay (thymidine incorporation); format: cell-based
# Description: Mink Lung Epithelial Cell Proliferation Assay for Active TGF-β. Mink lung epithelial cell line CCL-64 was purchased from American Type Culture Collection (ATCC, Manassas, Va.) and maintained in high-serum medium. For proliferation assays, these cells were plated in 96-well plates at 1×10^4 cells/well in low-serum fibroblast cell culture medium and incubated overnight in humidified atmosphere of 5% CO2 at 37° C. The medium was then replaced with fibroblast cell culture supernatants or titrated dilutions rhTGF-β in low-serum medium, with and without neutralizing anti-pan-TGF-β antibody (clone 1D11 from R&D Systems), and incubation continued for additional 24 hours. Six hours before the end of the assay, wells were pulsed with 1 μCi of 3H-thymidine (Amersham). Quadruplicate cultures were harvested automatically and tritiated thymidine incorporation was measured with a TopCount NXT liquid scintillation counter (Perkin Elmer, Downers Grove, Ill.). Data were expressed as percent inhibition (versus low-serum medium used as a negative control), neutralized by 1 μg/ml of anti-TGF-β antibody (this concentration of the antibody was established in preliminary experiments as sufficient to completely abrogate the inhibitory effect of the fibroblast conditioned medium on mink lung epithelial cell proliferation). […]
molecule,measurement,setting,value
"rhPARC: Recombinant human pulmonary and activation-regulated chemokine (CC chemokine CCL18), purchased from R&D Systems and Cell Sciences (protein) AQVGTNKELCCLVYTSWQIPQKFIVDYSETSPQCPKPGVILLTKRGRQICADPNKKWVQKYISDLKLNA",steady-state collagen α2(I) mRNA level versus control,"[1]; LF1 and LF2, 300 ng/ml rhPARC, 3 and 6 h",transiently increased; also recorded: higher than in control cells
same,higher concentration of collagen mRNA in treated samples versus control,"[1]; lung fibroblasts, 300 ng/ml rhPARC, 6 h",approximately 4 fold
same,direct effect on proliferation of mink lung epithelial cells,[2],did not affect proliferation of mink lung epithelial cells

# Reference: patent publication US20060009452A1, “Therapeutic targeting of PARC/CCL18 and its signaling in pulmonary fibrosis” (priority 2004, published 2006)
